Experiment [1] deals with T1, human TL1A (human, UniProt O95150 72-251, limits assumed).
T1 construct: also called huTL1A; TNFSF15
T1 sequence (looked up): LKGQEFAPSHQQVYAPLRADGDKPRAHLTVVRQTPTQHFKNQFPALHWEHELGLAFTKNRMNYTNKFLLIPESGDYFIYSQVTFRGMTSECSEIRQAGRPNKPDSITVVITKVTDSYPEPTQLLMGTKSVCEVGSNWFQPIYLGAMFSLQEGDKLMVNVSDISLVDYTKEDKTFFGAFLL
Put plainly: hybridoma screening after immunisation with recombinant human TL1A soluble protein; member named through Tables A, C and D.

Experiment [2] concerns the target T2, human TL1A (human, UniProt O95150 72-251, limits assumed).
T2 sequence (looked up): T1 sequence (looked up)
Put plainly: cell-based or functional assay.

For experiment [3], the target named is T3, cynomolgus TL1A (cynomolgus monkey, UniProt G7PRK8 72-251).
T3 sequence: T1 sequence (looked up) with F39L, I78V
Put plainly: cell-based or functional assay.

Experiment [4] deals with T2, human TL1A. Put plainly: SPR, mAb captured on anti-human Fc chip, TL1A injected, 1:1 model. Background: SPR reads the build-up and loss of mass on a sensor chip optically.
Procedure: (§1) On rate, off rate and equilibrium dissociation constant were calculated using 1:1 binding model on BIAevaluation software.
Experiment [5] addresses T3, cynomolgus TL1A. Described as above.
Procedure: as §1
For experiment [6], the target named is T2, human TL1A. Put plainly: SPR, Fab captured on anti-huFab chip, TL1A injected, 1:1 model.
Procedure: as §1

The record followed here is US20190119407A1 (Amgen, published 2019).

Numbering of substitutions follows the chain as printed.

B1: 60G11 (antibody, human IgG2, lambda, V domains shown)
VL: QSVLTQPPSVSGAPGQRVTISCTGSGSNIGAGYDVHWYQQLPGTAPKLLIYGNSHRPSGIPDRFSGSKSGTSASLAITGLQAEDEADYYCQSYDSSLSGYVFGTGTKVTVLG
V domain: EVQLLESGGGLVQPGGSLRLSCAASGFTFSNYAMNWVRQAPGKGLEWVSVISGRGGSTYYADSVKGRFTISRDNSRNTLYLQMNSLRAEDTAIYYCAKDGYSSAWFFDYWGQGTLITVSS
notes: also called iPS 427493
Consider B1, for which the binding result in the experiment with human TL1A [1] is “binds”.

B2: 58G5 (antibody, human IgG2, lambda, V domains shown)
VH: B1 V domain with N35S, E46Q, R76K, I93V, F106Y, I116V
VL: B1 VL with G26S, I60V
notes: also called iPS 427539
As for B2, the binding result in the experiment with human TL1A [1] is on record as “binds”.

B3: 88H9 (antibody, human IgG2, kappa, V domains shown)
VH: QVQLVESGAGVVQPGRSLRLSCAASGFTFSSYGMHWVRQAPGMGLEWVAVIWFDGSNEYYADSVKGRFTISRDNSKNTLYLQMNSLRAEDTAVYYCARERWFGELLDYWGQGTLVTVSS
VL: DIQMTQSPSSLSASVGDRVTITCRASQGIRNDLGWYQEKPGKAPKRLIYAASGLQGGDPSRFSGSGSGTEFTLTISSLQPEDFATYYCLQHNSYPTWTFGQGTKVEIKR
notes: also called iPS 427485
As to B3, in the experiment with human TL1A [1], the binding result is “binds”.

B4: 23B3 VH3 (antibody, human IgG1, kappa, N297G, V domains shown)
VH: EVQLLESGGGLVQPGGSLRLSCAISGDSVSTNSVAWNWIRQAPGKGLEWVSRTYYRSKWYNDYAVSVKGRFTISPDTSKNTFYLQMNSLRAEDTAVYYCAREDGDSYYRYGMDVWGQGTTVTVSS
VL: DIQMTQSPSSLSASVGDRVTITCRSSQSVLYSSNNKNYLVWYQQKPGKVPKLLIYWASTRESGVPSRFSGSGSGTDFTLTISSLQPEDFATYYCQQYYKTPLTFGGGTKVEIKR
notes: also called 23B3 HC3; iPS 325336
As for B4, the binding result with human TL1A [1] was “binds”.

B5: anti-TL1A mAb 3C6 (antibody, human IgG1, kappa, N297G, V domains shown)
VH: QVQLVESGGGVVQPGRSLRLSCAASGFTFSSYGMHWVRQAPGKGLEWVAVISYDGNNKLYTDSVKGRFTISRDDSKSTLYLQMNSLRAEDTAVYYCARDPTVTLYYYYGMDVWGQGTTVTVSS
VL: DIQMTQSPSSLSASVGDRVTITCRTSQDIRDDLGWYQQKPGKAPKRLIYDASSLQSGVPSRFSGSGSGTEFTLTISSLQPEDFATYYCLQHNSYPPTFGQGTKVEIKR
notes: also called PL-39112; iPS 284112
In general, Kd refers to the constant that tells how readily two partners part at equilibrium. A higher Kd goes with a looser complex. Broadly, the koff is the first-order rate constant of dissociation. The low end stands for a long-lived complex, the high end for a short-lived complex. A word on the kon: it is the rate constant with which the complex forms. Higher therefore signals faster complex formation. As to B5, in the experiment with human TL1A [2], the “NF-kB IC50 nM, huTL1A (0.2 nM)” value stood at 0.153 nM. Besides, the “NF-kB IC50 nM, cyno TL1A (2 nM)” value with cynomolgus TL1A [3] is > 100 nM. In the experiment with human TL1A [4], the dissociation constant Kd was < 0.1 nM and the dissociation rate constant (koff) is < 5e-05 s⁻¹. In the experiment with cynomolgus TL1A [5], this molecule had a Kd of 2.4 nM, a koff of 0.0014 s⁻¹ and a kon of 570000 M⁻¹ s⁻¹.

B6: 54E5 (antibody, human IgG2, kappa, V domains shown)
VH: QVQLVESGGGVVQPGRSLRLSCAASGFTFSTYGMHWVRQAPGKGLEWVAVIWYDGSNKDYADSVKGRFTVSRDNSRDTLYLQMNSLRAEDTAVYYCAREERDSYYHYGMDVWGQGTTVTVSS
VL: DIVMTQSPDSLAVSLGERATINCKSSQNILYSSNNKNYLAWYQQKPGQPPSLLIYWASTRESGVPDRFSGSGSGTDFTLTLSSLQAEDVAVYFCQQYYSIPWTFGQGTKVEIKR
notes: also called iPS 427576
In the case of B6, the binding result with human TL1A [1] is given as “binds”.

B7: 56E1 (antibody, human IgG2, kappa, V domains shown)
VH: B6 VH with T28I, T31S
VL: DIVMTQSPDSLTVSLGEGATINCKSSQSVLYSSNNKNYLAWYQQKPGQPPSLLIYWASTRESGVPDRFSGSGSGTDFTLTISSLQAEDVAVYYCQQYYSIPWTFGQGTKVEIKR
notes: also called iPS 427554
For B7, in the experiment with human TL1A [1], the binding result is listed as “binds”.

B8: 53D3 (antibody, human IgG2, kappa, V domains shown)
VH: EVQLVESGGGLVKPGGSLRLSCAASEFTFSTYYMSWVRQAPGKGLEWVSSISSSSSFIYYADSVKGRFTISRDNAKNSLYLQMNSLRAEDTAVYYCARDRIAAPGTYYYYGMDVWGQGTTVTVSS
VL: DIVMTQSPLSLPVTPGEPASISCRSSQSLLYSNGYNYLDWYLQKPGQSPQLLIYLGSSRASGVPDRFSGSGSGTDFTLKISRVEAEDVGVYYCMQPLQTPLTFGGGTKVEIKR
notes: also called iPS 427504
For B8, in the experiment with human TL1A [1], the binding result is reported as “binds”.

B9: 92D3 (antibody, human IgG2, kappa, V domains shown)
VH: QVQLVQSGAEVKKPGASVQVSCKASGYTFTGYYMHWIRQAPGQGLEWLGWIIPNSGGTNYAQKFQGRVTMTRDTSISTAYMELSRLRSDDTAVYYCATGSSWEGFDYWGQGTLVTVSS
VL: DIQMTQSPSSLSASVGDRVTITCRASQSISSYLNWYQQKPGTAPKFLIYGASRLQSGVPSRFSGSGSGTDFTLTISSLQPEDFATYYCQQSDTTPITFGQGTRLEIKR
notes: also called iPS 427564
Regarding B9, the binding result in the experiment with human TL1A [1] is “binds”.

B10: 91F10_LC2 (antibody, human IgG2, kappa, V domains shown)
VH: B9 VH with V2G, Q19K, K23Q, G31A, I37V, L48M, I52N, Q65R, S100G
VL: B9 VL with T42K, G50A, T93S
notes: also called iPS 427572
Turning to B10, the binding result with human TL1A [1] is “binds”.

B11: 77D12 (antibody, human IgG2, lambda, V domains shown)
VH: QVQLVQSGAEVKKPGASVRVSCKASGYTFTGFYMHWVRQAPGQGLEWMGWINPDSGGTNYAQKFQGRVTMTRDTSISTAYMELSRLRSDDTAVYYCAREGIAVALTYWGQGTLVTVSS
VL: QSVLTQPPSASGTPGQRVTISCSESNSDIGTNAVNWYQQFPGTAPKFLIYSNNKRPSGVPDRFSGSKSGTSASLAISGLQSEDEADYYCATWDDNLNGPLFGGGTKLTVLG
notes: also called iPS 427549
B11: the binding result with human TL1A [1] is listed as “binds”.

B12: 57A8 (antibody, V domains shown)
VH: EIQLLESGGGLVQPGGSLRLSCVASGFTFSSYVMSWVRQAPGKGLEWVSVISGSGGSTYYADSVKGRFTISRDNSKTTLYLQMNSLRAEDTAVYYCAKGGTNYYYYYSGMDVWGQGTTVTVSS
VL: QSVLTQPPSVSGAPGQRVTISCTGSSSNIGAGYNVHWYQQLPGTAPKLLIYGNNNRPSGVPDRFSGSKSGTSASLAITGLQTEDEADYYCQSYDSSLSGWVFGGGTKLTVL
notes: also called iPS 427519
As to B12, in the experiment with human TL1A [1], the binding result is on record as “binds”.

B13: 92E5 (antibody, human IgG2, kappa, V domains shown)
VH: EVHLLESGGGLVQPGGSLRLSCAASGFTFSSYAMSWVRQVPGKGLEWVSGISGRGGSTYYADSVKGRFTISRDNSKNTLYLQMDSLRAEDTAVYNCAIEVAGAFDIWGQGTMVTVSS
VL: DIQMIQSPSSLSASVGDRVTITCRASQSISHYLNWYQQKPGKAPKFLIYAASSLQSGVPSRFSGSGSGTDFTLTISSLQPEDFATYYCQQSFSSITFGQGTRLEIKR
notes: also called iPS 427559
As for B13, the binding result with human TL1A [1] was “binds”.

B14: 91G8 (antibody, human IgG2, kappa, V domains shown)
VH: B13 VH with H3Q, A23V, V40A, R54S, T58R, D84N, N95Y
VL: B13 VL with H31S, S94T
notes: also called iPS 427524
Regarding B14, the binding result with human TL1A [1] is listed as “binds”.

B15: 89H9 (antibody, human IgG2, kappa, V domains shown)
VH: B13 VH with V40A, R54G, D84N, D90N, N95Y, V100M
VL: B13 VL with R18S, H31Y, F92Y
notes: also called iPS 427509
Take B15: the binding result in the experiment with human TL1A [1] is listed as “binds”.

B16: 91D7 (antibody, human IgG2, kappa, V domains shown)
VH: QVQLQQWGAGLLKPSETLSLTCAVYGGSFSGYYWSWIRQPPGKGLEWIGEINPVGRTNYKPSLKSRVTISVDTSKNQFSLKLSSVTAADTALYYCARDNGWHYAFDIWGQGTMVTVSS
VL: DIQMTQSPSSLSASVGDRVTITCRASQNISSYLNWYQQRPGKAPNLLLFTASSLQSGVPSRFSGSGSGTDFTLTINSLQPEDFATYYCQQSYSNPPESSFGQGTKLEIKR
notes: also called iPS 427514
For B16, the binding result with human TL1A [1] is given as “binds”.

B17: 87H11 (antibody, human IgG2, kappa, V domains shown)
VH: B16 VH with V2E, P53H, V54S, K60N, L92V, N99S, Y103F, A104S, G109D
VL: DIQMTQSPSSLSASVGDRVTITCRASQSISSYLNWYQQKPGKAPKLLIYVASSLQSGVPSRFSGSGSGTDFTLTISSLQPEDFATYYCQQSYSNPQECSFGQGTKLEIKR
notes: also called iPS 427534
Turning to B17, in the experiment with human TL1A [1], the binding result is on record as “binds”.

B18: anti-TL1A mAb 9C8 (antibody, human IgG1, kappa, N297G, V domains shown)
VH: QVQLQESGPGLVKPSETLSLTCTVSGGSISSYFWSWIRQPPGKGLEWIGYIYYSGNTKYNPSLKSRVTISIDTSKNQFSLKLSSVTAADTAVYYCARETGSYYGFDYWGQGTLVTVSS
VL: DIQMTQSPSSLSASVGDRVTITCRASQSINNYLNWYQQRPGKAPKLLIYAASSLQSGVPSRFSGSGSGTDFTLTISSLQPGDFATYYCQQSYSTPRTFGQGTKLEIKR
notes: also called PL-39116; iPS 285412
B18: the “NF-kB IC50 nM, huTL1A (0.2 nM)” value with human TL1A [2] worked out at 0.131 nM. In addition, the dissociation constant (Kd) with human TL1A [4] was determined as 0.34 nM.

B19: anti-TL1A Fab 9C8 (Fab, V domains shown)
VH: B18 VH
VL: DIQMTQSPSSLSASVGDRVTITCRASQSINNYLNWYQQRPGKAPKLLIYAASSLQSGVPSRFSGSGSGTDFTLTISSLQPGDFATYYCQQSYSTPRTFGQGTKLEIK
notes: Fab fragment; the Fab's constant parts are not; also called 9C8 Fab; PL-39197
With B19, the “NF-kB IC50 nM, huTL1A (0.2 nM)” value in the experiment with human TL1A [2] stood at 2.43 nM. Also, the dissociation constant (Kd) in the experiment with human TL1A [6] is < 0.1 nM.

B20: 76A4 (antibody, human IgG2, kappa, V domains shown)
VH: QVQLQQSGPGLVKPSQTLSLTCAISGDSVSSNSATWNWIRQSPSRGLEWLGRTYYRSKLYNDYAVSVKSRITINPDTSKNQFSLQLNSVTPEDTAVYYCAREVVAGPRWFDPWGQGTLVTVSS
VL: B18 VL with I29V, N30T, N31S, R39K, A50T, V58I, G81E, Y87F, T97S
notes: also called iPS 427529
Take B20: the binding result with human TL1A [1] was “binds”.

B21: anti-TL1A Fab 2G11 (Fab, V domains shown)
VH: B18 VH with N56S, K58N, I69M, T99I, T112A
VL: B19 VL with R39K, K42I, A51T, T72S, G81E, Y87F, L104V
notes: Fab fragment; the Fab's constant parts are not; also called 2G11 Fab; PL-38025
Regarding B21, in the experiment with human TL1A [2], the “NF-kB IC50 nM, huTL1A (0.2 nM)” value amounted to 0.551 nM. Further, the dissociation constant (Kd) with human TL1A [6] was < 0.3 nM.

B22: anti-TL1A mAb 2G11 (antibody, human IgG1, kappa, N297G, V domains shown)
VH: B18 VH with N56S, K58N, I69M, T99I, T112A
VL: B18 VL with R39K, K42I, A51T, T72S, G81E, Y87F, L104V
notes: also called iPS 285396
For the molecule B22, the “NF-kB IC50 nM, huTL1A (0.2 nM)” value with human TL1A [2] came to 0.223 nM. For the same molecule, in the experiment with human TL1A [4], the affinity, expressed as Kd, was 1.1 nM.

B23: 73C2 (antibody, human IgG2, kappa, V domains shown)
VH: B20 VH with N32S, Y55Q, L59W, Y60N, K79R
VL: B18 VL with I29F, N30S, N31S, R39K, K45E, G81E, T85S, Y87F, T97S
notes: also called iPS 427544
Regarding B23, the binding result with human TL1A [1] was “binds”.
